Among the data in patent publication US20050249739A1 are S-protein-pseudotyped HIV luciferase infection of ACE2-expressing 293T cells values, retold here.

For the test, the target named is S protein of GD03T on pseudotyped HIV (SARS-CoV (GD03T isolate)). Description: cell-based or functional assay.

For the substance 80R IgG1 (antibody), the S-protein-pseudotyped HIV luciferase infection of ACE2-expressing 293T cells is above 50 µg/mL.
